Experimental data as given in the nanobody polyreactivity screen of Harvey et al. (2022).

Assay: yeast display, Sf9 membrane polyspecificity reagent, FACS + sequencing; frameworks hold sequencing errors
Outline: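 Genes from sorted yeast were amplified by colony PCR, read by MiSeq 2 × 250 sequencing and filtered on CDR length. These cells carried a synthetic nanobody library in Saccharomyces cerevisiae BJ5465 and were sorted by FACS into low and high (top ~1%) gates on anti-HA and streptavidin fluorescence. Polyreactivity is labelled according to the gate of origin.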

Row | Sequence | polyreactivity (PSR sort gate)
1 | QVQLVESVGGLVQAGGSLRLSCAASGITYYGYAMGWYRQAPGKERELVAAISKSGGSTHYADSVKGRFTISRDNAKNTVYLQMNSLKPEDTAVYYCNSRSLVFPITFWEYDYWGQGTQVTVSS | low polyreactivity
2 | QVQLVESGGGLVQAGGSLRLSCAASGSTFRRYAMGWYRPAPGKERELVAVITSRGGSTYYADSVKGRFTISRDNAKNTVYLQMNSLKPEDTAVYYCAAGYTSGYWANHYTPRFYYWGQGTQVTVSS | high polyreactivity
3 | QVQLVESGGGLVQAGGSLRLICAASGNTFVDYAMGWYRQAPGKELELVAAISRSGGSTYADSVKGRFTISRDNAKNTVYLQMNSLKPEDTAVYYCAAYSGVGYLWFDYWGQGTQVTVSS | low polyreactivity
4 | QLQLVESVGGLDQAGGSLRLSCAASGSIFIRNAIGSYRQAPGKERELVAAISSTGSTYYADSVKGRFTISRDNAKNTVYLQMNSLKPEDTAVYYCADYYTVAMDYWGQGTQVTVSS | low polyreactivity
5 | QVQLVESGGGLVQAGGSLRLSCAASGRTFLWNALGWYRQAPGKESELVARINLSGGRTYYADSVKGRFTISRDNAKNCVYLQMNSLKPEDTAVYYCAATVVRYRRDSWGQGTQVTVSS | low polyreactivity
6 | QVQLVESGGGLVQAGGSLRLSCAASGFIYFDYAMGWDRQAPGKERELVAGISRSGDSTYYADSVKGRFTISRDNAKNTVYLQMNSLKPEDTGVFYCAVVTYRSKAHSSRNGKYYYWGQGTHVTVSS | low polyreactivity
7 | QVQLVESGGGLVQAGGSLRLSCAASGYIFDPNAMGWYRQAPGKERELVAAISGSGTSTYYADSVKGRFTISRDNAKNTVYLQMNSLKPEDTAVYYCAAAHDAGPVRYYYWGQGTQVTVSS | low polyreactivity
8 | QVQLVESGGGLVQAGGSLRLSCAASGFTFNDNDMGWYRQAPGKEWELVAAITYGGSTYYADSVKGRFTISRENAKNTVYLQMNSLKPEDTAVYYCNVEFFFWPYEYGYWGQGTQVNVSS | low polyreactivity
9 | QVQLVESGGGLVQAGGSLRLSCAASGYIFLRNAMAWYTKAPGKERELVAAIRRTGGSTYYADSVKGRFTISRDNAKNTVYLQMNSLKPEDTAVYYCAKRSYTGYEYWGQGTQVTVSS | low polyreactivity
10 | QVQLVESGGGLVQAGGSLRLSCAASGRTFPINAMGWYRQAPGKERELVASIRWTDGTTYYADSVKGRFTISRDSAKNTVYLQMNSLKPEDTAVFYCAADAEGSASKYDYWGQGTQVTVSS | low polyreactivity
11 | QVQLVESGGGLVQAGGSLRLSCAASGSIFSFNAMGRSRQAPGKERELVASITSGGSTNYADSVKGRFTISRDNAKNTVYLQMNSLKPEDTEVYYCNARFPYLSRWLVRGLASYDYWGQGTQVTVSS | low polyreactivity
12 | QVQLVESGGGLVQAGGSLRLSCPDSVFTFGATVMGWYRQAPGKEREFVAGITWSGDSTYYADSVKGRFTISRDNAKNTVYFQMNSLKPEDTAVYYCAADVYDGAYILDYDYWGQGTQVTVSS | low polyreactivity
13 | QVQLVESGGGLVQAGGSLRLSCAASGRIFPSYAMGWYRKAPGKERELVAAISDSDGSTYYADSVKGRFTISRDNAKNTVYLQMNSLKPEDTAVYYCAAEGSFPAYDYWGQGTQVTVSS | low polyreactivity
14 | QVQLVESGGGLVQAGGSLRLSCAASGYIFYYYAMGWYRQAPGKERELVAAISSGGSTSYADSVKGRFTISRDNAKNTVYLQMNSLKPEDTAVYYCAAYKPWYVGLYPWYDYWGQGTQVTVSS | low polyreactivity
15 | QVQLVESGGGLVQAGGSLRLSCAASGSIFKYYAMGWYRQAPGKERELVAAISTGGTTNYADYVKGRFTISRDNAKNTVYLQMNSLKPEDTAVYYCNRDYLVRSRYKYYYWGQGTQVTVSS | low polyreactivity
16 | QVQLVESGGGLVQAGGSLRLSCDASGFIFYYYDMGWYRQAPGKERELVASIDNGGDTNYADSVKGRFTISLDNAKNTVYLQMNSLKPEDTAVYYCAAPYSPLWYPGGDYWRQGTQVTVSS | low polyreactivity
17 | QVQLVESGGGLVQAGGSLRLSCAASGITFYYYAMGWYRQAPGKERELVAAISRSGGSTYYADSVKGRFTISRDNAKNTVYLQMNSLKPEDTAVYYCANRKGGTLYNYWGQGTQVTVSS | high polyreactivity
18 | QVQLVESGGGLVQAGGSLRLSCAASGITFRWNAMGWYRPAPGKARELVAAITYRGGSTHYADSVKGRFTISRDNGKNSVYIQMNSLKPEDTAVYYCAVRRWPRYRWSDYWVQGTQVTVSS | low polyreactivity
19 | QVQLVESGGGLVQAGGSLRLSCAASGIIFPGYVMGWYRQAPGKERELVAAISYSGGRTYYADSVKGRFTISRDNAKNTVYLQMNSLIPEDTAVYYCAARKSYFTSTDRYYGYYYHQSNYLGQGTQVTVSS | high polyreactivity
20 | QVQLVESGGGLVQAGGSLRLSCAASGSIFEWYAMGWYRQAPGKASALVAAISSGGRTYYADSVKGRFTISRDNAKNTVYLQMISLKPEDTAVYYCAARDVDHVGGSKYYYWGLGTQVTVSS | high polyreactivity
21 | QVQLVESGGGLVQAGGSLRLSCAASGYTFTIYSMGWYRQAPGKERELVAAISWNGGRTYYADSVKGRFTISRDNAKNTVYLKMNSLKPEDTAVYDCNADNFSAGDYWGQGTQVTVSS | high polyreactivity
22 | QVQLVESGGGLVQPGGSLRLSCSASGRIFDNYAMGWYRQAPGKEREFVARITSSGGSTYYADSVKGRFTISRDYAKNTVYLQMYSLKPEDTAVYYCAKRGWSSYCRYDSWGQGTQVTVSS | high polyreactivity

Row | Sequence | polyreactivity (PSR sort gate)
23 | QVQLVESGGGLVQAGGSLRLSCAASGSTFQIYAMGWYRQAPGKEWELVAAITSSSSTNYADSVKGRFTISRDNAKNTVYLQMNSLKPEDTAVYYCAADVSWRSNWYDYWGQGTQVTVSS | low polyreactivity
24 | QVQLVESGGGLVQAGGSLLLSCAASGITFGDNAMGWYRQAPGKERELVAAISSGGSTDYADSVNGRFTISRDNAKNTVYLQMNSLKPEDTAVYYCAVDWVSVPEYDYWGQGTQVTVSS | low polyreactivity
25 | QVQHVDSGGGLVQARGTLRLSCSASGRNFGIYTMGWYRQPPVKERELVAAISWRGGSTYYADSVKGRFTISRDNAKNTVYFQLNSLKPEDTAVYYCGKTQPGWRPVRDQIRYGYWGQGTQVTVSA | high polyreactivity
26 | QVQLVESGGGLVQAGGRLRLSCAASGSTIPRYAMGWSRQAPGKERELVAAITNGGSTNYADSVKGRFTISRDNAKNTVYLQMNSLKPEDTAVYYCAKRFGYRFYYGGQGTQVTVSS | high polyreactivity
27 | QVQLVESGGGLLQAGGSLRLSCSASGRIFPSYAMGWYRQAPGKERELVAAISSSGGRTYYADSVKGRFTISRDNAKNTVYLQLNSLKPEDTAVYYCAARWVQYGVRYDFWGQGTQVTVSS | high polyreactivity
28 | QVQLVESGGGLVQAGGSLRLSCAASGSTFSANGMGWYRQAPGKERELVAAISARGGITYYADSVKGRFTISRDNAKNTVYLQMNSVKPEDTAVYYCNQRKYYRSTKYNYWGQGTQVTVSS | high polyreactivity
29 | QVRLVESGGGLVQAGGSLRLSCAASGRILQVYAMGWYRQAPGKERELVAGIRSSGGRTYYADSVKGRFTISRDNAKNTVSLQMNSLKPEDTAVYYCAADQDWYGFVIGFDYWGQGTQVTVSS | low polyreactivity
30 | QVQLQESGGGLVQAGGSLRLSCAASGYISHADEMGWYRQAPGLEHELVASISNGGSTNYADSVKGLFTISRDNAKNTEYLQLNSLKSEDTAVYYCAAWTGQVDIHYYWGQGTQVTVSS | low polyreactivity
31 | QVQLVESGGGLVQAGGSLRLSCAASGRIFGVYAMGWYRQAPGKEREFVARISWHGGRTYYADSVKGRFTISRDNAKNTVYLQMNSLKPEDTAVYYCAADHGYPSRLDYWGQGTQVTVSS | high polyreactivity
32 | QVQLVESGGGLVQAGGSLRLSCAASGNTFYKYAMRWYRQAPGKERELVADISWSGGSTYYADSVKGRFTISRDNAKNTVYLQMNSLKPEDTAVYYCNADTPVWDGHAYPVDYWGQGTQVTVSS | low polyreactivity
33 | QVQLVESGGGLVQAGGSLRLSCPASGSIVGYYVMGWYRQAPGKERELVAAISWSSGSTYYADSVKGRFTISRDNAKNTVYLQKNSLKPEDTAVYYCNASNVYFWFVTLEFDYWGQGTQVTVSS | low polyreactivity
34 | QEQLLESGGALVQAGGSLRLSCMASGSILGDRMSWYRQAPGKEHELVATIYDGGITYYADSMKGRFTISRDNAKNTVYLQMNSLRPEDTAVYYCGASFEGYRYHVYCGQGTQVTVSS | low polyreactivity
35 | QVQLVESGGGLVQAGGSLRLSCAASGFIFWYNAMGWYRQAPGKERELVADNTSGGSTTYADSVKGRFTISRDNAKNTVYLQMNSLKPEDTAVYYCAASIRRYWLHPGDYWGQGTQVTVSS | low polyreactivity
36 | QVQLEESGVGLVQAGGSLRLICAASGFTFYSYAMGWYRQAPGKERELVASISWRGGSTYYADSVKGRFTISRDNAKNTVYLQMNSLKPVDTAVYYCAAQKRGSPVYRRDYWGQGTEVTVSS | high polyreactivity
37 | QVHLVDSRGVLVQAGGSLRLSCAASGRTFFHYAMGWYRQAPGKERELVAAITYRGTSTYYADSVKARFTISRDYAKNTVYLQMNSLKPEATAVYYCNAYTTRGGWSYRGDSWGQGTQVTVSS | high polyreactivity
38 | QVQLVESGGGLVQAGGSLRLSCAASGRNFPDNTMGWYRHAPGKERELVATIAWIGASTYYADSEKGRFTISRDNAKNTVYLQMNSLKPEDTAVDYCAGTTSHRWYGFNSKYDFDYWGQGTQVTVSS | low polyreactivity
39 | QVQLVESGGGLVQAGGSLRLSCAASGSTFVYYAMGWYRQAPGKEREFVAAISYSGGNTYYADSVKGRFTISRDNAMNTVYLQMNSLKPEDTAVYYCAAYYYYFYHKVIWYELDYWGQGTQVTVSS | low polyreactivity
40 | QVQLVESGGGLVQAGGSLRLSCAASGNIFLYYAMGWYRQAPGKERELVARIDSGGSTYYADSVKGRFTISRDNAKNTVYLQMNSLKPEDTAVYYCATDEGTVGGQQLRPLMDYWGQGTQVTVSS | low polyreactivity
41 | QVQLVESGGGLVQAGGSLRLSCAASGRTFDSNAMGWYRQAPGKERELVAAIYADSVKGRFTISRDNAKNTVYLQMNSLKPEDTAVYYCAAETYSGQTYLGEYDYWGQGTEVTVSS | low polyreactivity
42 | QVQLVESGGGLVQAGGSLRLSCAASGRIFWGYAMGWYRQAPGKERELVAAISWSGGSTYYADSVKGRFTISRDNAKNTVYLQMNSLKPEDTAVYYCNAYSDGDEDYWGQGTQVTVSS | low polyreactivity
43 | QVQLVESGGGLVQAGGSLRLSCAASGSTFVPYTMGWYRQAPGKERELVAAISGSGGTDYADSVKGRFTISRDNAKNTVYLQMNSLKPEDTAVYYCAADPQYWRFYSYGGGDDYWGQGTQVTVSS | low polyreactivity
